Test results from the supplement of paper PMC9233669.
Fewer inactive variants are shown than the library holds.

Assays:
[1] = test system: biotinyl-Phe-oxazolone; assay: self-aminoacylation, catalytic enhancement (BFO) (fold over background); higher = more active; k-Seq, kA / k0A0; sequences stand for … in GGGAAUGGAUCCACAUCUACGAAUUC…UUCACUGCAGACUUGACGAAGCUG
Method in brief: (§1)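 Mutagenized RNA pools with a 21-nt variable region (0.43 μM) were reacted with each biotinyl-aminoacyl-oxazolone at 2–1250 μM for 90 minutes at room temperature, in 50 μL HEPES/NaCl/KCl/MgCl2/CaCl2 buffer containing 5% acetonitrile at pH 6.9–7.0. RNA captured on streptavidin was quantified by triplicate qPCR and by Illumina sequencing. The fraction reacted for each sequence was fit to a pseudo-first-order model with bootstrapping, and catalytic enhancement is the median kA divided by the uncatalyzed rate, taken as the low-activity peak of a bimodal Gaussian fit.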

[2] = test system: biotinyl-Ile-oxazolone; assay: self-aminoacylation, catalytic enhancement (BIO) (fold over background); higher = more active; k-Seq, kA / k0A0; sequences stand for … in GGGAAUGGAUCCACAUCUACGAAUUC…UUCACUGCAGACUUGACGAAGCUG
Method in brief: as §1

[3] = test system: biotinyl-Met-oxazolone; assay: self-aminoacylation, catalytic enhancement (BMO) (fold over background); higher = more active; k-Seq, kA / k0A0; sequences stand for … in GGGAAUGGAUCCACAUCUACGAAUUC…UUCACUGCAGACUUGACGAAGCUG
Method in brief: as §1

[4] = test system: biotinyl-Val-oxazolone; assay: self-aminoacylation, catalytic enhancement (BVO) (fold over background); higher = more active; k-Seq, kA / k0A0; sequences stand for … in GGGAAUGGAUCCACAUCUACGAAUUC…UUCACUGCAGACUUGACGAAGCUG
Method in brief: as §1

[5] = test system: biotinyl-Leu-oxazolone; assay: self-aminoacylation, catalytic enhancement (BLO) (fold over background); higher = more active; k-Seq, kA / k0A0; sequences stand for … in GGGAAUGGAUCCACAUCUACGAAUUC…UUCACUGCAGACUUGACGAAGCUG
Method in brief: as §1

[6] = test system: biotinyl-Trp-oxazolone; assay: self-aminoacylation, catalytic enhancement (BWO) (fold over background); higher = more active; k-Seq, kA / k0A0; sequences stand for … in GGGAAUGGAUCCACAUCUACGAAUUC…UUCACUGCAGACUUGACGAAGCUG
Method in brief: as §1

| Sequence | self-aminoacylation [1] | self-aminoacylation [2] | self-aminoacylation [3] | self-aminoacylation [4] | self-aminoacylation [5] | self-aminoacylation [6] |
| --- | --- | --- | --- | --- | --- | --- |
| AAGUUUGCUAAUAGUAGCGAG [Fam3.1 aminoacylation ribozyme variant] | 1.65 | 1.21 | 0.995 | 1 | 0.962 | 1.14 |
| AAGUUUGCUAAUAGUCACAAA [Fam3.1 aminoacylation ribozyme variant] | 1.34 | 1.21 | 1.32 | 1.09 | 1.22 | 1.15 |
| AAGUUUGCUAAUAGUCACAAC [Fam3.1 aminoacylation ribozyme variant] | 1.47 | 0.673 | 0.6 | 0.621 | 0.637 | 0.593 |
| AAGUUUGCUAAUAGUCCAAAG [Fam3.1 aminoacylation ribozyme variant] | 3.72 | 1.21 | 1.34 | 1.18 | 0.966 | 1.75 |
| AAGUUUGCUAAUAGUCCGAAG [Fam3.1 aminoacylation ribozyme variant] | 4.75 | 1.1 | 1.02 | 1.02 | 0.863 | 1.89 |
| AAGUUUGCUAAUAGUCGCAAG [Fam3.1 aminoacylation ribozyme variant] | 32 | 1.33 | 1.47 | 1.15 | 1.01 | 7.99 |
| AAGUUUGCUAAUAGUCGCACC [Fam3.1 aminoacylation ribozyme variant] | 1.29 | 0.81 | 0.569 | 0.756 | 0.718 | 0.849 |
| AAGUUUGCUAAUAGUCGCAUU [Fam3.1 aminoacylation ribozyme variant] | 1.63 | 1.37 | 1.25 | 1.22 | 1.27 | 1.29 |
| AAGUUUGCUAAUAGUCGCGCG [Fam3.1 aminoacylation ribozyme variant] | 20.9 | 3.47 | 3.95 | 2.94 | 4.77 | 5.74 |
| AAGUUUGCUAAUAGUCGCUAG [Fam3.1 aminoacylation ribozyme variant] | 1.68 | 0.852 | 0.813 | 0.852 | 0.809 | 1.05 |
| AAGUUUGCUAAUAGUCGGUAG [Fam3.1 aminoacylation ribozyme variant] | 1.66 | 0.974 | 0.878 | 0.771 | 1.03 | 0.993 |
| AAGUUUGCUAAUAGUCUCCAG [Fam3.1 aminoacylation ribozyme variant] | 1.59 | 1.1 | 0.855 | 0.947 | 0.909 | 1.02 |
| AAGUUUGCUAAUAGUGGCAAU [Fam3.1 aminoacylation ribozyme variant] | 1.43 | 1.08 | 1.16 | 1.16 | 0.961 | 0.811 |
| AAGUUUGCUAAUAGUGGCGAG [Fam3.1 aminoacylation ribozyme variant] | 1.2 | 0.939 | 0.875 | 0.88 | 1.09 | 0.531 |
| AAGUUUGCUAAUAGUGGCUAG [Fam3.1 aminoacylation ribozyme variant] | 1.52 | 0.811 | 0.777 | 0.862 | 0.65 | 0.748 |
| AAGUUUGCUAAUAGUGGUAAG [Fam3.1 aminoacylation ribozyme variant] | 0.868 | 0.992 | 0.769 | 0.801 | 0.788 | 0.724 |
| AAGUUUGCUAAUAGUUGCAAC [Fam3.1 aminoacylation ribozyme variant] | 0.862 | 1.06 | 0.933 | 0.83 | 0.853 | 0.841 |
| AAGUUUGCUAAUAUUCGCAAA [Fam3.1 aminoacylation ribozyme variant] | 0.994 | 1.2 | 1.75 | 1.32 | 1.25 | 2.04 |
| AAGUUUGCUAAUAUUCGCAAU [Fam3.1 aminoacylation ribozyme variant] | 1.32 | 1.31 | 1.11 | 1.05 | 1.16 | 1.33 |
| AAGUUUGCUAAUCGGCGCAAG [Fam3.1 aminoacylation ribozyme variant] | 2.32 | 0.842 | 1.03 | 1.14 | 1.05 | 0.944 |
| AAGUUUGCUAAUGGGCGCAAG [Fam3.1 aminoacylation ribozyme variant] | 0.784 | 0.937 | 0.695 | 0.874 | 1.08 | 1.5 |
| AAGUUUGCUAAUGGUCGAAAG [Fam3.1 aminoacylation ribozyme variant] | 1.03 | 0.687 | 0.723 | 0.897 | 0.591 | 0.713 |
| AAGUUUGCUAAUGGUCGCGAG [Fam3.1 aminoacylation ribozyme variant] | 8.04 | 1.21 | 1.15 | 1.27 | 1.59 | 1.82 |
| AAGUUUGCUAAUUGUAGCAAG [Fam3.1 aminoacylation ribozyme variant] | 0.987 | 0.854 | 0.979 | 1.03 | 0.95 | 1.02 |
| AAGUUUGCUAAUUGUCGCAAG [Fam3.1 aminoacylation ribozyme variant] | 1.37 | 0.834 | 0.788 | 0.846 | 0.764 | 1.06 |
| AAGUUUGCUAAUUGUCUCAAG [Fam3.1 aminoacylation ribozyme variant] | 1.05 | 0.937 | 0.943 | 0.881 | 0.852 | 0.743 |

| Sequence | self-aminoacylation [1] | self-aminoacylation [2] | self-aminoacylation [3] | self-aminoacylation [4] | self-aminoacylation [5] | self-aminoacylation [6] |
| --- | --- | --- | --- | --- | --- | --- |
| AAGUUUGCUACUAGUCCCAAG [Fam3.1 aminoacylation ribozyme variant] | 0.773 | 0.894 | 0.931 | 0.759 | 0.899 | 0.786 |
| AAGUUUGCUAGAAGUCGCAAG [Fam3.1 aminoacylation ribozyme variant] | 0.798 | 0.674 | 0.802 | 0.656 | 0.824 | 1.51 |
| AAGUUUGCUAGCAGUCGCAAG [Fam3.1 aminoacylation ribozyme variant] | 1.85 | 1.19 | 1.03 | 1.08 | 1.04 | 0.91 |
| AAGUUUGCUAGUAAUCGCAAG [Fam3.1 aminoacylation ribozyme variant] | 0.961 | 0.761 | 0.789 | 0.819 | 0.733 | 0.849 |
| AAGUUUGCUAGUAGUUGCAAG [Fam3.1 aminoacylation ribozyme variant] | 0.949 | 0.985 | 1.04 | 0.737 | 0.791 | 1.1 |
| AAGUUUGCUAUUAGUCCCAAG [Fam3.1 aminoacylation ribozyme variant] | 1.45 | 0.989 | 0.99 | 1.02 | 1.04 | 2 |
| AAGUUUGCUAUUAGUCGCUAG [Fam3.1 aminoacylation ribozyme variant] | 1.16 | 0.864 | 1.01 | 0.85 | 0.815 | 0.805 |
| AAGUUUGCUAUUAGUUGCAAG [Fam3.1 aminoacylation ribozyme variant] | 1.46 | 0.855 | 0.859 | 0.874 | 0.96 | 1.01 |
| AAGUUUGCUCAUUGUCGCAAG [Fam3.1 aminoacylation ribozyme variant] | 3 | 0.875 | 1.09 | 0.968 | 0.923 | 1.89 |
| AAGUUUGCUGAUAGUCGCAAU [Fam3.1 aminoacylation ribozyme variant] | 1.68 | 1.71 | 1.22 | 1.33 | 1.09 | 1.87 |
| AAGUUUGCUUAUAGUCGCGAG [Fam3.1 aminoacylation ribozyme variant] | 0.935 | 1.01 | 1.07 | 1.03 | 0.821 | 1.53 |
| AAGUUUGGGAAUAGUCGCAAG [Fam3.1 aminoacylation ribozyme variant] | 1.95 | 1.32 | 0.876 | 1.25 | 1.05 | 1.69 |
| AAGUUUGGUAAUACUCGCAAG [Fam3.1 aminoacylation ribozyme variant] | 1.07 | 1.06 | 0.998 | 1.04 | 0.673 | 0.719 |
| AAGUUUGGUAAUAGGCGCAAG [Fam3.1 aminoacylation ribozyme variant] | 0.618 | 0.692 | 0.705 | 0.775 | 0.761 | 0.712 |
| AAGUUUGGUAAUAGUCGCAAA [Fam3.1 aminoacylation ribozyme variant] | 1.72 | 1.88 | 1.66 | 1.44 | 1.44 | 1.75 |
| AAGUUUGGUAAUAGUCGCAAC [Fam3.1 aminoacylation ribozyme variant] | 2.86 | 1.48 | 1.19 | 1.47 | 1.16 | 1.84 |
| AAGUUUGGUAAUAGUCGCAGG [Fam3.1 aminoacylation ribozyme variant] | 2.19 | 1.47 | 1.39 | 1.4 | 1.7 | 2.18 |
| AAGUUUGGUAAUAGUCGCCAG [Fam3.1 aminoacylation ribozyme variant] | 4.77 | 1.32 | 1.1 | 1.32 | 1.27 | 2.18 |
| AAGUUUGGUAAUAGUCGGAAG [Fam3.1 aminoacylation ribozyme variant] | 1.11 | 0.893 | 0.771 | 0.815 | 0.717 | 1.08 |
| AAGUUUGUCAAUAGUCGCAAG [Fam3.1 aminoacylation ribozyme variant] | 3.72 | 2.03 | 1.87 | 1.78 | 2.25 | 1.95 |
| AAGUUUGUUAAUUGUCGCAAG [Fam3.1 aminoacylation ribozyme variant] | 0.994 | 1.09 | 0.992 | 0.926 | 0.933 | 0.92 |
| AAGUUUGUUAGUAGUCGCAAG [Fam3.1 aminoacylation ribozyme variant] | 1.02 | 0.852 | 0.841 | 0.823 | 1.06 | 0.675 |
| AAGUUUUCUAAUAGUAGCAAG [Fam3.1 aminoacylation ribozyme variant] | 2.5 | 1.5 | 1.29 | 1.34 | 1.33 | 1.8 |
| AAGUUUUCUAAUAGUCGCAUG [Fam3.1 aminoacylation ribozyme variant] | 3.44 | 1.78 | 1.4 | 1.2 | 1.85 | 1.91 |
| AAGUUUUCUAAUAGUCGGAAG [Fam3.1 aminoacylation ribozyme variant] | 1.99 | 1.44 | 1.25 | 1.31 | 1.14 | 1.21 |
